Literature values in article PMC6600238.

Biological target: vitronectin (Homo sapiens) (UniProt P04004)
UniProt P04004, sequence (P04004 399-478): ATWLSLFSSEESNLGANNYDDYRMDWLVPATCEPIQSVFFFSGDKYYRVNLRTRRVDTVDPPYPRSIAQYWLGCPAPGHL

## uPAR (from UniProt Q03405)
  Kd: 4 µM
